Reference: patent publication US20140274782A1, “AFFINITY REAGENTS AND METHODS FOR DETECTION, PURIFICATION, AND PROTEOMIC ANALYSIS OF METHYLATED PROTEINS” (The Board of Trustees of the Leland Stanford Junior …, priority 2013, published 2014)

What was measured:
[1] = tested on: 3×MBT domain of L3MBTL1; assay: Triple SILAC pull-down, 3xMBT/3xMBTD355N ratio (cytoplasmic, nuclear and chromatin fractions of 293T cells); format: binding, human; details: for 3xMBT/D355N UNC Heavy: experiment with UNC0638 in heavy SILAC media; for 3xMBT/D355N UNC Light: experiment with UNC0638 in light SILAC media;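 on all read-outs here: proteins quantified with MaxQuant, requiring at least two unique peptides and quantification in both label directions, normalized to the mean of proteins from a digested loading control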
[2] = target: T1, G9a and GLP (Homo sapiens, UniProt Q96KQ7+Q9H9B1); assay: Triple SILAC pull-down after UNC0638 treatment of 293T cells, DMSO/UNC0638 ratio of protein captured by 3×MBT; format: cell-based; details: for Relative to UNC0638 UNC Heavy: UNC0638 in heavy SILAC media; for Relative to UNC0638 UNC Light: UNC0638 in light SILAC media; for Relative to UNC0638 Average: average of UNC Light and UNC Heavy experiments;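 on all read-outs here: mass spectrometry (Q-Exactive) SILAC quantitation, DMSO/UNC0638 ratio computed after subtracting 3×MBTD355N mutant pull-down background, only proteins with at least twofold 3×MBT over mutant signal considered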
T1 construct: endogenous in cells; host or cells: HEK 293T
T1 sequence (Q96KQ7 2-1210 limits assumed): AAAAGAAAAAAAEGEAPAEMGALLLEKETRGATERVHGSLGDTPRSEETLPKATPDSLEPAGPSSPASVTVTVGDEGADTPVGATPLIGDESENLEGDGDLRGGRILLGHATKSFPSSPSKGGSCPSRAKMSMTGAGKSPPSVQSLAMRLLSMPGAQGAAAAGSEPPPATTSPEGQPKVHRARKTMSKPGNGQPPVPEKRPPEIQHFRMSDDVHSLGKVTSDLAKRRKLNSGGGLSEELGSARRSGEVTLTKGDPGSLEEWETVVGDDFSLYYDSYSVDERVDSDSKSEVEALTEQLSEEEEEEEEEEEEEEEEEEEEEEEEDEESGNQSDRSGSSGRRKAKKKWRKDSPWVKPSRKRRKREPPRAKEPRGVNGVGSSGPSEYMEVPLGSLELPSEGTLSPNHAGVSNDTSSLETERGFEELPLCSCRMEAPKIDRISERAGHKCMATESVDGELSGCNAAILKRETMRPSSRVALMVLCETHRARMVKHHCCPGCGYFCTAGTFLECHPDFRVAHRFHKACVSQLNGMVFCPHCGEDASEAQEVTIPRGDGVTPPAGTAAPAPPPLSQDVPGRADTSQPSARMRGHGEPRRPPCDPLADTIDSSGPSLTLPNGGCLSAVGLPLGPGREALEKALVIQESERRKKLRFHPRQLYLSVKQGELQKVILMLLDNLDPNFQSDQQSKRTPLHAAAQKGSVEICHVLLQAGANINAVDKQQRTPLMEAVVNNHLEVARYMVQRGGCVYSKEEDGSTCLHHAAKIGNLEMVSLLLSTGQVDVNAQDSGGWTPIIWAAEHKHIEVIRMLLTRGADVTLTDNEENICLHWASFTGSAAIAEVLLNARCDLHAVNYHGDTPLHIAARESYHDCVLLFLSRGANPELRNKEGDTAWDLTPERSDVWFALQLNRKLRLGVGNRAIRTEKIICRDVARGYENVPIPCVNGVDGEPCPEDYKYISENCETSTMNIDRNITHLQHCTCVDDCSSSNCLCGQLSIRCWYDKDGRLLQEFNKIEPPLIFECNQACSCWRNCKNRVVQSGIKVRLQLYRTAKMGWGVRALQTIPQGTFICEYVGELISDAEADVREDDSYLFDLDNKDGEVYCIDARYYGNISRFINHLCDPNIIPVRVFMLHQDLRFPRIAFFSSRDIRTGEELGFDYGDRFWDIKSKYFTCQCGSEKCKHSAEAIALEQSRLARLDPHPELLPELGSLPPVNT
T1 sequence (Q9H9B1 2-1298 limits assumed): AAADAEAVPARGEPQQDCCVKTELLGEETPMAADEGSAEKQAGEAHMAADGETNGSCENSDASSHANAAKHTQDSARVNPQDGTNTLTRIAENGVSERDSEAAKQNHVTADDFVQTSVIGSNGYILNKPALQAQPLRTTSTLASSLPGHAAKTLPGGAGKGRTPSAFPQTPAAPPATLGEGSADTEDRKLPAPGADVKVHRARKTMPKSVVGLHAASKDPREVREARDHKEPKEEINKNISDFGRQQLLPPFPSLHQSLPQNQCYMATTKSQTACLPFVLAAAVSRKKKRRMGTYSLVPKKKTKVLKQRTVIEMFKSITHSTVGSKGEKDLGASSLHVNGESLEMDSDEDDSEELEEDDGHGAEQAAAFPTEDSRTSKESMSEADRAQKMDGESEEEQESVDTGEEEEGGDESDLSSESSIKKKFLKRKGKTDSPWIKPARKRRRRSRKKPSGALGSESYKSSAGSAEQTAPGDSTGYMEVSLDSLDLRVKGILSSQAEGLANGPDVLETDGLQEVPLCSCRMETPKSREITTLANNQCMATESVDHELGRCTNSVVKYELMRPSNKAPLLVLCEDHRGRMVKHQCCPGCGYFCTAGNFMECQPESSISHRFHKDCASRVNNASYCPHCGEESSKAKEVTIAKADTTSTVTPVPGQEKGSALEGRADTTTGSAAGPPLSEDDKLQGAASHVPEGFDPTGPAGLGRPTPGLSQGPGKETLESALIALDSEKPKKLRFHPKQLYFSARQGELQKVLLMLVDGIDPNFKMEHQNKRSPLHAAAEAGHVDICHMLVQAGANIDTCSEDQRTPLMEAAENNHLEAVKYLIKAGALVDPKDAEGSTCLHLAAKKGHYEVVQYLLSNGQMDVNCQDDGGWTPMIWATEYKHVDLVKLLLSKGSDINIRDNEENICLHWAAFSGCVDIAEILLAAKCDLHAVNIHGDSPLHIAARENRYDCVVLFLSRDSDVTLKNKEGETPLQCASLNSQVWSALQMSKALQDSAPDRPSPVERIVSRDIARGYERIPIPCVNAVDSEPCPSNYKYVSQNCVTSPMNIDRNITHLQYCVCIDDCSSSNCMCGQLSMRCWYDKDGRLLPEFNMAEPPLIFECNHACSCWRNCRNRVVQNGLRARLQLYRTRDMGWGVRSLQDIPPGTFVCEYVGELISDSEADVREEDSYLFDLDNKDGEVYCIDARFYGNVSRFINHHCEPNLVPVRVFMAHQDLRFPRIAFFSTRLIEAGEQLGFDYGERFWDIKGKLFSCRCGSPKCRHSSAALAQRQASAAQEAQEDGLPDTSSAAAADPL

[3] = SILAC ratio, pull-down 3xMBT vs 3xMBTD355N
[4] = SILAC ratio DMSO/UNC0638 of protein pulled down with 3xMBT
[5] = SILAC ratio 3xMBT vs 3xMBTD355N pull-down, 293T cells, all values in log base 2
[6] = SILAC ratio DMSO relative to UNC0638, pull-down with 3xMBT, all values in log base 2

Substance | 3xMBT/D355N UNC Heavy [1, 3] [log base 2] | 3xMBT/D355N UNC Light [1, 3] [log base 2] | Relative to UNC0638 UNC Heavy [2, 4] [log base 2] | Relative to UNC0638 UNC Light [2, 4] [log base 2] | Relative to UNC0638 Average [2] [log base 2] | Candidate G9a/GLP target ([2]; reduced association with 3xMBT after UNC0638 treatment) | 3xMBT/D355N UNC Heavy [1, 5] [log base 2] | 3xMBT/D355N UNC Light [1, 5] [log base 2] | Relative to UNC0638 UNC Heavy [2, 6] [log base 2] | Relative to UNC0638 UNC Light [2, 6] [log base 2] | Relative to UNC0638 Average ([2]; all values in log base 2) [log base 2]
NUDT21 | 3.65 | 3.15 | 0.20 | 0.04 | 0.12 | – | – | – | – | – | –
HIST1H1C | 5.16 | 4.61 | 0.18 | 0.15 | 0.17 | – | – | – | – | – | –
TRIM25 | 1.88 | 0.76 | 0.05 | 0.46 | 0.25 | – | – | – | – | – | –
HNRNPU | 2.16 | 2.39 | 0.22 | 0.28 | 0.25 | – | – | – | – | – | –
SMARCA5 | 2.49 | 2.61 | 0.47 | 0.32 | 0.39 | ✓ | – | – | – | – | –
FAM98A | 2.99 | 4.03 | 0.57 | 0.19 | 0.38 | – | – | – | – | – | –
EIF4B | – | – | – | – | – | – | 3.26 | 2.50 | −0.32 | 0.03 | −0.15
YWHAE | 1.86 | 2.52 | 0.58 | −0.12 | 0.23 | – | – | – | – | – | –
MAP4K5 | – | – | – | – | – | – | 1.69 | 0.87 | 0.63 | −0.72 | −0.04
